In patent US20230183366A1:

Target: Cohesin-human OX40 ectodomain protein (human) (UniProt P43489)
Assay: SPR, antibody captured on protein A, soluble cohesin-human OX40 ectodomain injected

Chain of UniProt P43489 (P43489 26-211 limits assumed, form in doubt): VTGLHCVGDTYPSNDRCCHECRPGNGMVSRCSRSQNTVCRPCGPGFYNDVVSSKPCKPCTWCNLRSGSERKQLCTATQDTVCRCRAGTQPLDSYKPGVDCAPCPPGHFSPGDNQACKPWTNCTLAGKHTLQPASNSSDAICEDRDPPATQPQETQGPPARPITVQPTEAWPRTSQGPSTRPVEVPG

Kd: 131 nM
bracketed ratio of KD relative to Anti-OX40 IgG1: 1
bracketed ratio of Ka relative to Anti-OX40 IgG1: 1
bracketed ratio of kd relative to Anti-OX40 IgG1: 1
koff: 0.0019 s⁻¹
kon: 14000 M⁻¹ s⁻¹
B1: humanized anti OX40 Ab24 IgG1 (antibody, V domains shown)
VH: QVQLQESGPGLVKPSQTLSLTCAVYGGSFSSGYWNWIRKHPGKGLEYIGYISYNGITYHNPSLKSRITINRDTSKNQYSLQLNSVTPEDTAVYYCARYKYDYDGGHAMDYWGQGTLVTVSS
VL: DIQMTQSPSSLSASVGDRVTITCRASQDISNYLNWYQQKPGKAPKLLIYYTSKLHSGVPSRFSGSGSGTDYTLTISSLQPEDFATYYCQQGSALPWTFGQGTKVEIKR
